Test results: patent US11911450B2, “Method for managing pain” (UNIVERSITY OF MIAMI, priority 2017, dated 2024)
“Also recorded” adds a separate entry of the source.

B1: Car10: carbonic anhydrase 10, rodent ortholog, overexpressed (V5-tagged) protein (protein)
chain: MEIVWEVLFLLQANFIVCISAQQNSPKIHEGWWAYKEVVQGSFVPVPSFWGLVNSAWNLCSVGKRQSPVNIETSHMIFDPFLTPLRINTGGRKVSGTMYNTGRHVSLRLDKEHLVNISGGPMTYSHRLEEIRLHFGSEDSQGSEHLLNGQAFSGEVQLIHYNHELYTNVTEAAKSPNGLVVVSIFIKVSDSSNPFLNRMLNRDTITRITYKNDAYLLQGLNIEELYPETSSFITYDGSMTIPPCYETASWIIMNKPVYITRMQMHSLRLLSQNQPSQIFLSMSDNFRPVQPLNNRCIRTNINFSLQGKDCPNNRAQKLQYRVNEWLLK
modifications: left off: small tags and cut ends
notes: carbonic anhydrase 10, rodent ortholog, overexpressed (V5-tagged) protein
B2: CA10: human carbonic anhydrase 10, overexpressed (V5-tagged) protein; SEQ ID NO: 9 (protein)
chain: B1 chain
modifications: V5 tag

Columns and labels:
[1] = test system: ITPR1-mediated cytoplasmic calcium release; test: ATP-induced cytoplasmic calcium release in HEK293 cells (Fura-2 imaging); assay type: cell-based, human; conditions: 1 μM ATP, overexpression vs empty vector
Description: Cell culture and transfections: Human neuronal-derived (e.g., NBL), human non-neuronal derived (e.g., HEK293) cells, or dispersed rodent primary DRG cells can be used. HEK293 cells (cat #CRL-1573 ATCC Manassas, VA) were cultured in Dulbecco's modified Eagle's medium (DMEM-Glutamax cat #0566; Invitrogen) supplemented with 10% fetal bovine serum, FBS (cat #16140 ThermoFisher scientific, Waltham, MA) and 1% penicillin/streptomycin (cat #15140 ThermoFisher scientific, Waltham, MA). Cells were seeded in six-well plates at density of 1.0×10^5 cells per well. The following day, cells were transfected with plasmids via lipofectamine LTX reagent and plus (cat #15338 ThermoFisher scientific, Waltham, MA). For each transfection 2 μg of AAV2-ITR (control), AAV2-V5-Car10, or AAV2-V5-CA10 vectors was used. In various embodiments of the disclosure described herein, 2 μg of expression vectors (including positive and negative controls) in instances when AAV2 is not the viral vector employed.
Pharmacodynamics—Bioassay of Calcium Release: Fifteen mm glass coverslips (cat #72228 Electron Microscopy Sciences, Hatfield, PA) were coated with poly-D-Lysine (Sigma) followed by Laminin and 1×10^5 cells were seeded on each coverslip. Twenty-four hrs later, cells were transfected with AAV2-ITR, AAV2-V5-Car10, or AAV2-V5-CA10 vectors as previously described. In embodiments wherein AAV2 is not employed, other expression vectors (including viral vectors) are used. Fura-2AM (cat #F1221 ThermoFisher scientific, Waltham, MA) was dissolved in DMSO (50 μg in 50 μl) and 1% pluronic acid-127 (cat #P2443 Sigma, St Louis, MO) as the stock solution. Forty eight hrs after seeding, cells were loaded with 2 μM Fura-2AM dye for 45 min at room temperature in the dark in a standard Ca+2 buffer solution containing: 125 mM NaCl, 2 mM MgCl, 4.5 mM KCl, 10 glucose, 20 mM HEPES, 2 mM CaCl2, pH 7.4.25. Following dye loading, coverslips were washed with Ca^+2 buffer solution. […] Regions of interest over the field of view were selected and the mean pixels intensity at each frame was measured. Data was plotted as ratio fluorescence intensity versus time and subsequently converted to a relative scale.
To further examine whether FLAG-CA8-204 (data not shown), V5-Car10 and V5-CA10 overexpression can inhibit ATP-induced calcium release, HEK293 cells were infected with each if these constructs and real-time intracellular calcium concentrations at baseline and in response to ATP stimulation were measured (FIG. 2). […]

RYR1 = molecular target: T1, RYR1 (Homo sapiens, UniProt P21817); test: immunoprecipitation (anti-RYR1) and western blot (anti-V5) in NBL cells; assay type: binding; conditions: 48 h after transfection
T1 construct: NBL cells were transfected with AAV-V5-CA10 and AAV-V5-Car10 using Lipofectamin (LTX); endogenous in cells; host or cells: NBL cells transfected with V5-CA10 / V5-Car10 only
T1 sequence (P21817 whole entry): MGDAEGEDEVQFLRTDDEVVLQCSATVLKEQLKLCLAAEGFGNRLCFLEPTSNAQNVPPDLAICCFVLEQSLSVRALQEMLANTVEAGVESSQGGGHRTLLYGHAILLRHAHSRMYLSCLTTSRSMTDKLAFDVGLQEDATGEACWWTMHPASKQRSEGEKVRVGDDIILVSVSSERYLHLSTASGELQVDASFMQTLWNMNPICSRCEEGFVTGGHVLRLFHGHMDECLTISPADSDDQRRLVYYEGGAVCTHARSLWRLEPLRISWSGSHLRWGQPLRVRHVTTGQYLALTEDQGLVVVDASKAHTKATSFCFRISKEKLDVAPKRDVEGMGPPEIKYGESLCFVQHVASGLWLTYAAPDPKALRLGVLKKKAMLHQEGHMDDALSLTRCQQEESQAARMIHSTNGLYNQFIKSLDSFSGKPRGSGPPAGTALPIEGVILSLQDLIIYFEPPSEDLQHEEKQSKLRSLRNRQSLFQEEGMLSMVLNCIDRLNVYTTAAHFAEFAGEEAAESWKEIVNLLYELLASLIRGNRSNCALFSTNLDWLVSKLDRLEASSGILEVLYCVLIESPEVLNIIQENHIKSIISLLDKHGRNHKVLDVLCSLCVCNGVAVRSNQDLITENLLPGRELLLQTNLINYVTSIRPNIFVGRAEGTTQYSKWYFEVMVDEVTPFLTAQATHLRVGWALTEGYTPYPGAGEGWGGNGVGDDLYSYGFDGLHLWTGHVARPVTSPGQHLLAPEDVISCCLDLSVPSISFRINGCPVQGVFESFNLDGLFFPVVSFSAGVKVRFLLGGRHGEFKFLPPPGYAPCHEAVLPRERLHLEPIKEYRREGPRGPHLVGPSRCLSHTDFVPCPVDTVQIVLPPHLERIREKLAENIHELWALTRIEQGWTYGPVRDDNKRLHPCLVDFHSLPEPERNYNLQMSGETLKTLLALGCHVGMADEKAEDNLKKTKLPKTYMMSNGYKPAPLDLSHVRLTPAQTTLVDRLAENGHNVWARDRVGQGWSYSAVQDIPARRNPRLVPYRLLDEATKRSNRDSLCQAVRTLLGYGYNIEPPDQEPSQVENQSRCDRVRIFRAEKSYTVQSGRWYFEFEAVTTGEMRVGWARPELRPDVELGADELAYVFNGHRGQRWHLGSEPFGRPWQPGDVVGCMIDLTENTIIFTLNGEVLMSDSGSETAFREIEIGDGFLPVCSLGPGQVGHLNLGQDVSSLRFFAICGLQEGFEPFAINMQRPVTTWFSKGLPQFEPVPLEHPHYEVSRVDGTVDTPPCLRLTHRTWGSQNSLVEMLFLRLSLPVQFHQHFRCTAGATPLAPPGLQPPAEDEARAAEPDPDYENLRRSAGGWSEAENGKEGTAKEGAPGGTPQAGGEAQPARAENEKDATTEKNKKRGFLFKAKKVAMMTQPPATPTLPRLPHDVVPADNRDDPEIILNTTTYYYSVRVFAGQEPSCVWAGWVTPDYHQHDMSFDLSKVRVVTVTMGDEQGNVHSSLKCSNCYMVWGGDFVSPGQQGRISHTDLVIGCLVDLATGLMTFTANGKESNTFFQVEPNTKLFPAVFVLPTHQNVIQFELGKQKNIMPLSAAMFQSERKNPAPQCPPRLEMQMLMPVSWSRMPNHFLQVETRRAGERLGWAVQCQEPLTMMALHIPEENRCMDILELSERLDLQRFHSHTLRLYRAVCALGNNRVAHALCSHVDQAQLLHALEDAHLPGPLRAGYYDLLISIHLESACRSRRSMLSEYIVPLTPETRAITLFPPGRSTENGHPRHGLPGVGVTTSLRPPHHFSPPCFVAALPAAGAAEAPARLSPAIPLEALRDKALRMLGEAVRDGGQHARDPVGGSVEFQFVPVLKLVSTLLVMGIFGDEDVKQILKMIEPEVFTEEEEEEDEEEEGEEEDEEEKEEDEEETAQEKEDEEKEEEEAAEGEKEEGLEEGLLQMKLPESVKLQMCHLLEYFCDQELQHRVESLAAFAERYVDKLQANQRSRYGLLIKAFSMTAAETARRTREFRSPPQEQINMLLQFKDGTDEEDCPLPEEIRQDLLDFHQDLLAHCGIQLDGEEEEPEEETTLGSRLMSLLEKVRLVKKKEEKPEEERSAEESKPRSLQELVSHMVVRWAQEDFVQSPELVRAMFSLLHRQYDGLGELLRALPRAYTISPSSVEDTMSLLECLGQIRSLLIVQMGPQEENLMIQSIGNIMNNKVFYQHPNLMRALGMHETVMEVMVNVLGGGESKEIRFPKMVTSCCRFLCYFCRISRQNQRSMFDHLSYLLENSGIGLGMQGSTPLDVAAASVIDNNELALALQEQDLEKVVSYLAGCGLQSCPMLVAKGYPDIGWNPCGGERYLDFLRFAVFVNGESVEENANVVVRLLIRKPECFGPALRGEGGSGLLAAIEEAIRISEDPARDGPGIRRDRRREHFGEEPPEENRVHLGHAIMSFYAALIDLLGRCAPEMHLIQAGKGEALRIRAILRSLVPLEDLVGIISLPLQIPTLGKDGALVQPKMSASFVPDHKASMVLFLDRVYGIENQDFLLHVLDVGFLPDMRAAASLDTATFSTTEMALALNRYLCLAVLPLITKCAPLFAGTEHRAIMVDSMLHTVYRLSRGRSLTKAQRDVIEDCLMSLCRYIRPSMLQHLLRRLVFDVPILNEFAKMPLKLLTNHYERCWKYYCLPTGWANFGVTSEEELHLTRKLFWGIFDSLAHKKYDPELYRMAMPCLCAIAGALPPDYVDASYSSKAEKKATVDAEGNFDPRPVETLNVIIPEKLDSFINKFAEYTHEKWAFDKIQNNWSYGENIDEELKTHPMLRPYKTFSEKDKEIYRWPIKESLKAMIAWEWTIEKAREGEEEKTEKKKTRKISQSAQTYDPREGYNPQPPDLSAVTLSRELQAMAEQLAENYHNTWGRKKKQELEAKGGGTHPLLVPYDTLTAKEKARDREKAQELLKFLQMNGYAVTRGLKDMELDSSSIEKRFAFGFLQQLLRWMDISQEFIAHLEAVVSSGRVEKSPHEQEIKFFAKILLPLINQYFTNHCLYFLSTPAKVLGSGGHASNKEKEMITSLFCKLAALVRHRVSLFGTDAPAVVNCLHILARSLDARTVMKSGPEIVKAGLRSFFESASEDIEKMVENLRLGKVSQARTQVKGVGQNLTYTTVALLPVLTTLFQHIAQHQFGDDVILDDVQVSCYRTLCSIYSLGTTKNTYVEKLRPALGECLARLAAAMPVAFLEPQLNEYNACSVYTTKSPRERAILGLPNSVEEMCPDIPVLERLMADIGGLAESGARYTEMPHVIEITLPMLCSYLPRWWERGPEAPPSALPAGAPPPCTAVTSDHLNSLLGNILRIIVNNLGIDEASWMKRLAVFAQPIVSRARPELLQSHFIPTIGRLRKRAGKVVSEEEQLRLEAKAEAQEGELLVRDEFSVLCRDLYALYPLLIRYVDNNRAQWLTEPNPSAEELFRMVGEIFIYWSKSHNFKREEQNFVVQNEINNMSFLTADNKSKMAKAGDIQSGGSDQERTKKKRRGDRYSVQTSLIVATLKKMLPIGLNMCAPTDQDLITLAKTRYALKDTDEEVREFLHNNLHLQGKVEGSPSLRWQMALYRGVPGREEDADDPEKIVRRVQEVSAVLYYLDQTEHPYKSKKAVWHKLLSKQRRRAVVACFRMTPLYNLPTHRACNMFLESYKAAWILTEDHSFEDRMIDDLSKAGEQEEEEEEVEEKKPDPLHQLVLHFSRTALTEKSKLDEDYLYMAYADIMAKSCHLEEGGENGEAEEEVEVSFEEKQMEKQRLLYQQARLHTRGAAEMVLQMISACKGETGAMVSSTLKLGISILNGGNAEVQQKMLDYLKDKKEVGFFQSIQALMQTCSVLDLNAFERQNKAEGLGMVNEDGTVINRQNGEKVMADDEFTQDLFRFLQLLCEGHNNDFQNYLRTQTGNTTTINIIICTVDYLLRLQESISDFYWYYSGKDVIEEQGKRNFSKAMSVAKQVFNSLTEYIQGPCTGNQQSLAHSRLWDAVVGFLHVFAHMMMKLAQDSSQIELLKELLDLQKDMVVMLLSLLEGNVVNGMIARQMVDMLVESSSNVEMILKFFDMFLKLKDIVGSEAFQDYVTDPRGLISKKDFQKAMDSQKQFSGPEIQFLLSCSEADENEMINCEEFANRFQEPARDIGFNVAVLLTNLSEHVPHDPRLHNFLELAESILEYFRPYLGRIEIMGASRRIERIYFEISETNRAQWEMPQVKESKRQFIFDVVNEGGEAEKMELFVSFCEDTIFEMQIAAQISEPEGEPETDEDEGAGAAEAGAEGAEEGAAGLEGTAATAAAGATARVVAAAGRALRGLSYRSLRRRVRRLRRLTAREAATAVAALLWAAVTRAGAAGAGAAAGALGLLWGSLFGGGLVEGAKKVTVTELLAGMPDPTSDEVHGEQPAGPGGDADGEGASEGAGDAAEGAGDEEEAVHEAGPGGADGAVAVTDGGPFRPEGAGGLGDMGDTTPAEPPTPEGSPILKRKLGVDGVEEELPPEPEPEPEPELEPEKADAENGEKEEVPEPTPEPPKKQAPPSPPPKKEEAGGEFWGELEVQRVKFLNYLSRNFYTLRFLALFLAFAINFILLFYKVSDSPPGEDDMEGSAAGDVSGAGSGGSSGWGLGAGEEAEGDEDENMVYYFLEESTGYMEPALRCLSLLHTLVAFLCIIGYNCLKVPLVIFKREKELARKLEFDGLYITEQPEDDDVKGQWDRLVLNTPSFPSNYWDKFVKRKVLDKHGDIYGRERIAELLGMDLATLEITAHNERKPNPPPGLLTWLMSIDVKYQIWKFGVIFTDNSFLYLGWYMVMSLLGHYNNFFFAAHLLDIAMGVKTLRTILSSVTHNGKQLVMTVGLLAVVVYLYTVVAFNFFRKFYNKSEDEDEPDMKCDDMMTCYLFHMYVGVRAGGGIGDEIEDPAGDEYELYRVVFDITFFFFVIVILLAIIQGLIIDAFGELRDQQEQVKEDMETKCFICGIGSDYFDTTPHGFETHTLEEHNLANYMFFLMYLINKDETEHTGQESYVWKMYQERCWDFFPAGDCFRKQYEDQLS
Description: NBL cells were transfected with AAV-V5-CA10 and AAV-V5-Car10 using Lipofectamin (LTX). Cellular protein was extracted 48 h after transfection.
Immunoprecipitation (IP) and western blotting (WB) was utilized to detect binding. Rabbit anti-RYR1 was used for IP and chicken anti-V5 was used for WB analyses. About 1/10 of the IP protein was used for WB to show the V5 labeled CA10 or Car10 by WB. B-actin was used as a loading control. See FIG. 33, which establishes co-immunoprecipitation of CA10 and RYR.

ITPR1 = ITPR1 (Homo sapiens, UniProt Q14643); test: co-immunoprecipitation / western blot with ITPR1 and pITPR1; assay type: binding; design: before and after forskolin stimulation of HEK293 cells was conducted; endogenous in cells; host or cells: HEK293 (ATCC CRL-1573); conditions: HEK293 cells, before and after forskolin stimulation
Description: Immunoprecipitation: Fifty μl magnetic beads (Invitrogen) were incubated with 1 μg pITPR1 antibody for 45 minutes at 4° C. The supernatant was discarded and the beads were washed with binding buffer. Sample proteins of 200-400 μg were added and incubated with the beads for 4 hrs at 4° C. Then the protein complex was washed 3 times with washing buffer, and then eluted with SDS sample buffer. Samples were then heated at 70° C. for 10 min and then subjected to western blot analysis for Car10. The method described herein also is suitable for use in connection with Car8, CA8, CA8 fragment (CA8-204), CA10, Car11 and CA11.
Overexpression of V5-Car10 and V5-CA10 inhibits ATP-induced free calcium release in vitro: ITPR1 contains functionally distinct domains, including the ‘modulatory’ domain responding to intracellular modulators such as calcium, calmodulin, ATP, and carbonic anhydrase-8 (Car8). ATP increases ITPR1-dependent calcium release by increasing the open probability of the channel in the presence of activating concentrations of IP3 and calcium. It is believed that Car8-mediated inhibition of ITPR1 activation and ATP-mediated calcium release requires binding to this modulatory domain. Therefore, the ability of CA8 fragments (e.g., CA8-204), Car10 and CA10 to bind to ITPR1 and pITPR1 was examined. […]

Molecule	ATP-induced cytoplasmic calcium release (Fura-2 340/380 ratio) [1]	ATP-induced cytoplasmic calcium release (Fura-2 340/380 ratio) ([1]; listed as V5-Car10)	binding to RYR1 (co-immunoprecipitation) (RYR1)	binding to ITPR1 (co-immunoprecipitation) (ITPR1)	ATP-induced cytoplasmic calcium release (Fura-2 340/380 ratio) ([1]; listed as V5-CA10)
B1	inhibits ITPR1-mediated cytoplasmic calcium release	inhibits ATP-induced cytoplasmic calcium release	binds	do not bind to ITPR1	–
B2	inhibits ITPR1-mediated cytoplasmic calcium release	–	co-immunoprecipitation; also recorded: binds	do not bind to ITPR1	inhibits ATP-induced cytoplasmic calcium release
